Measured values taken from publication PMC4644223.

T1: Snf7 labeled with Alexa488 (yeast), P39929
T1 chain: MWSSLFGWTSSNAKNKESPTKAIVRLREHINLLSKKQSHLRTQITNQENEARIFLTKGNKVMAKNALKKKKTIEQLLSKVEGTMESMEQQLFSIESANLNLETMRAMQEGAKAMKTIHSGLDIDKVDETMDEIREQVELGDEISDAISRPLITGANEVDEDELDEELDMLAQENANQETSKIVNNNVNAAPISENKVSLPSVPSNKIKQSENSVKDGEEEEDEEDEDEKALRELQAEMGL

T2: Snf7 (yeast), P39929
T2 chain: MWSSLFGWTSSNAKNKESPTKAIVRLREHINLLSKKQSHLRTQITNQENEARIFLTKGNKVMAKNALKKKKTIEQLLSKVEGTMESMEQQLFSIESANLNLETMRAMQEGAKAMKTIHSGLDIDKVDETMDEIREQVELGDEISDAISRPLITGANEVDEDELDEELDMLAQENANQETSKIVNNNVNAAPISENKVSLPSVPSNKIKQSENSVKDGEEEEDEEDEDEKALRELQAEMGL


What was measured:
[1] = target: T1, Snf7 labeled with Alexa488 (yeast), …; assay: TIRF microscopy with counting of molecules by fluorescence intensity; details: remark: other sources report otherwise
Snf7 (yeast), P39929 = target: T2, Snf7 (yeast), P39929; assay: high-speed atomic force microscopy; details: remark: other sources report otherwise

Row | stoichiometry N [1] [monomers] | filament growth rate (subunits.s^−1.μM^−1) (Snf7 (yeast), P39929) | Binder
1 | 50 |  | Snf7 labeled with Alexa488, P39929 1-240 (natural protein, here or on the partner: Alexa488 label (TFP-Alexa-488), site not stated; Alexa488 label (TFP-Alexa-488), site not stated) MWSSLFGWTSSNAKNKESPTKAIVRLREHINLLSKKQSHLRTQITNQENEARIFLTKGNKVMAKNALKKKKTIEQLLSKVEGTMESMEQQLFSIESANLNLETMRAMQEGAKAMKTIHSGLDIDKVDETMDEIREQVELGDEISDAISRPLITGANEVDEDELDEELDMLAQENANQETSKIVNNNVNAAPISENKVSLPSVPSNKIKQSENSVKDGEEEEDEEDEDEKALRELQAEMGL
2 |  | 3 | Snf7, P39929 1-240 (natural protein) MWSSLFGWTSSNAKNKESPTKAIVRLREHINLLSKKQSHLRTQITNQENEARIFLTKGNKVMAKNALKKKKTIEQLLSKVEGTMESMEQQLFSIESANLNLETMRAMQEGAKAMKTIHSGLDIDKVDETMDEIREQVELGDEISDAISRPLITGANEVDEDELDEELDMLAQENANQETSKIVNNNVNAAPISENKVSLPSVPSNKIKQSENSVKDGEEEEDEEDEDEKALRELQAEMGL
